Where two headings read alike, the source gives them in different places. Marks after values point to notes of the source that are not given here.
Tests used:
[1] = human
[2] = orthogonalized contingency lattice analysis of AERS reports, reference condition rhabdomyolysis; details: for Z (z-score, rhabdomyolysis vs non-rhabdomyolysis randomized datasets): * = significant at Bonferroni-corrected 5% level (|z| > 12); for Nrhabdo (subset size based on the rhabdomyolysis dataset): records listing the drug(s) and excluding the other drugs, NR=11,773
Description: As a consequence, it should be noted that all of these subsets are mutually exclusive, with no patient appearing in more than one subset.
The results obtained from the orthogonalized contingency lattice just described are analyzed exactly as in the case of the basic contingency lattice described previously.
As before, significance is assessed using the Bonferroni-corrected z-score analysis described earlier herein. The primary difference between the results obtained with the original contingency lattice construction and those obtained with the orthogonalized construction lies in the fact that the orthogonalized patient subsets are mutually exclusive.

[3] = N=898 tuberculosis patients vs 200 random samples; Bonferroni-corrected 5% threshold; FIG. 7
[4] = two-way interaction analysis of AERS records, Infliximab and Methotrexate with pulmonary fibrosis; set-up: species or system patients; details: records listing both drugs vs 100 random samples of each reference population; FIG. 6
Excerpt: In the following description, let N denote the size of the first subset listed above—i.e., the total number of records in the available database listing both drugs. The interaction analysis considered here begins by computing NX, the number of times that Reaction X appears in this first record subset, and the objective of the analysis is to provide reference numbers to answer the following questions:
Each of these questions defines a collection of random reference sets that may be used to provide answers. Specifically, M random samples, each of size N, are drawn from the reference population defined by each of these questions (i.e., Drug A alone, Drug B alone, and neither drug), and the number of records in each random sample that also lists Reaction X is recorded.

[5] = reaction: antinuclear antibody positive
[6] = reaction: crohn's disease aggravated
[7] = reaction: disseminated tuberculosis
[8] = reaction: dna antibody nos positive
[9] = reaction: drug withdrawal syndrome
[10] = reaction: infusion related reaction
[11] = reaction: pharmaceutical product complaint
[12] = reaction: pneumocystis carinii pneumonia
[13] = reaction: pulmonary tuberculosis
[14] = reaction: rheumatoid arthritis aggravated
[15] = reaction: systemic lupus erythematosus

COC(=O)[C@H](c1ccccc1Cl)N1CCc2sccc2C1 [Case P, clopidogrel bisulfate]
Nref^+ (maximum subset size from the 200 randomly generated non-rhabdomyolysis datasets) [1]: 177 | Nref^− (minimum subset size from the 200 randomly generated non-rhabdomyolysis datasets) [1]: 114 | Nrhabdo (subset size based on the rhabdomyolysis dataset) [1]: 465 | PChebyshev (probability derived from the Chebyshev inequality) [1]: 1.43 × 10^−3 | association with rhabdomyolysis (in words) [1]: significant at the Bonferroni-corrected 5% | z (z-score, rhabdomyolysis vs non-rhabdomyolysis datasets) [1]: 26* | Nref^+ (maximum subset size from the 200 randomly generated non-rhabdomyolysis datasets) [2]: 169 | Nref^− (minimum subset size from the 200 randomly generated non-rhabdomyolysis datasets) [2]: 109 | PChebyshev (probability derived from the Chebyshev inequality) [2]: 2.20 × 10^−1 | Z (z-score, rhabdomyolysis vs non-rhabdomyolysis randomized datasets) [2]: 2 | Nrhabdo (subset size based on the rhabdomyolysis dataset) [2]: 163

infliximab
association with tuberculosis by orthogonalized lattice analysis (in words) [3]: only strong positive association with tuberculosis | number of adverse events that exceed the Bonferroni-corrected 5% significance threshold (AERS): 365 | Uab (designation: bone & joint tuberculosis): 1.09 × 10^5 | Uab (designation: bone amp joint tuberculosis): 1.34 × 10^6 | Uab (designation: disseminated tuberculosis): 6.22 × 10^117 | Uab (designation: lymph node tuberculosis): 1.57 × 10^8 | Uab (designation: lymph node tuberculosis nos): 4.98 × 10^15 | Uab (designation: peritoneal tuberculosis): 8.61 × 10^9 | Uab (designation: pulmonary tuberculosis): 1.11 × 10^109 | Uab (designation: spleen tuberculosis): 1.47 × 10^12 | Uab (designation: tuberculosis): 1.18 × 10^74 | Uab (designation: tuberculosis gastrointestinal nos): 2.85 × 10^10 | Uab (designation: tuberculosis nos): >10^308 | Uab (designation: tuberculosis reactivated): 3.40 × 10^6 | NAB [5]: 65 | RAB [5]: 12.93 | log10 UAB (Statistical Unexpectedness) [5]: 51.53 | NAB (reaction: basal cell carcinoma): 88 | RAB (reaction: basal cell carcinoma): 21.17 | log10 UAB (Statistical Unexpectedness) (reaction: basal cell carcinoma): 92.07 | NAB (reaction: crohn's disease): 60 | RAB (reaction: crohn's disease): 11.26 | log10 UAB (Statistical Unexpectedness) (reaction: crohn's disease): 43.74 | NAB [6]: 45 | RAB [6]: 22.02 | log10 UAB (Statistical Unexpectedness) [6]: 48.51 | NAB [7]: 93 | RAB [7]: 30.00 | log10 UAB (Statistical Unexpectedness) [7]: 117.79 | NAB [8]: 59 | RAB [8]: 24.01 | log10 UAB (Statistical Unexpectedness) [8]: 66.39 | NAB [9]: 2 | RAB [9]: 0.02 | log10 UAB (Statistical Unexpectedness) [9]: 44.68 | NAB (reaction: flushing): 254 | RAB (reaction: flushing): 4.37 | log10 UAB (Statistical Unexpectedness) (reaction: flushing): 83.41 | NAB [10]: 63 | RAB [10]: 19.32 | log10 UAB (Statistical Unexpectedness) [10]: 62.93 | NAB (reaction: listeriosis): 41 | RAB (reaction: listeriosis): 30.26 | log10 UAB (Statistical Unexpectedness) (reaction: listeriosis): 52.60 | NAB (reaction: lupus-like syndrome): 179 | RAB (reaction: lupus-like syndrome): 27.45 | log10 UAB (Statistical Unexpectedness) (reaction: lupus-like syndrome): 215.11 | NAB (reaction: medication error): 17 | RAB (reaction: medication error): 0.07 | log10 UAB (Statistical Unexpectedness) (reaction: medication error): 75.78 | NAB [11]: 6 | RAB [11]: 0.05 | log10 UAB (Statistical Unexpectedness) [11]: 41.69 | NAB [12]: 66 | RAB [12]: 9.58 | log10 UAB (Statistical Unexpectedness) [12]: 43.17 | NAB (reaction: pneumonia nos): 369 | RAB (reaction: pneumonia nos): 2.92 | log10 UAB (Statistical Unexpectedness) (reaction: pneumonia nos): 71.42 | NAB [13]: 99 | RAB [13]: 23.31 | log10 UAB (Statistical Unexpectedness) [13]: 109.04 | NAB (reaction: pyrexia): 596 | RAB (reaction: pyrexia): 1.80 | log10 UAB (Statistical Unexpectedness) (reaction: pyrexia): 41.44 | RAB (reaction: rhabdomyolysis): 0.08 | log10 UAB (Statistical Unexpectedness) (reaction: rhabdomyolysis): 58.33 | NAB [14]: 60 | RAB [14]: 12.27 | log10 UAB (Statistical Unexpectedness) [14]: 46.14 | NAB (reaction: rigors): 252 | RAB (reaction: rigors): 2.65 | log10 UAB (Statistical Unexpectedness) (reaction: rigors): 41.86 | NAB (reaction: sepsis nos): 268 | RAB (reaction: sepsis nos): 3.28 | log10 UAB (Statistical Unexpectedness) (reaction: sepsis nos): 61.87 | NAB [15]: 192 | RAB [15]: 11.24 | log10 UAB (Statistical Unexpectedness) [15]: 137.84 | NAB (reaction: tuberculosis): 64 | RAB (reaction: tuberculosis): 25.34 | log10 UAB (Statistical Unexpectedness) (reaction: tuberculosis): 74.07 | NAB (reaction: tuberculosis nos): 275 | RAB (reaction: tuberculosis nos): 29.00 | log10 UAB (Statistical Unexpectedness) (reaction: tuberculosis nos): >308.00

CN(Cc1cnc2nc(N)nc(N)c2n1)c1ccc(C(=O)N[C@@H](CCC(=O)O)C(=O)O)cc1 [Methotrexate, methotrexate]
drug interaction with respect to pulmonary fibrosis (in words) [4]: responsible for the large number of cases seen when both drugs are present

Cc1ccc(C)c(OCCCC(C)(C)C(=O)O)c1 [Case L, gemfibrozil]
Nref^+ (maximum subset size from the 200 randomly generated non-rhabdomyolysis datasets) [1]: 72 | Nref^− (minimum subset size from the 200 randomly generated non-rhabdomyolysis datasets) [1]: 33 | Nrhabdo (subset size based on the rhabdomyolysis dataset) [1]: 2982 | PChebyshev (probability derived from the Chebyshev inequality) [1]: 6.16 × 10^−6 | Nref^+ (maximum subset size from the 200 randomly generated non-rhabdomyolysis datasets) [2]: 55 | Nref^− (minimum subset size from the 200 randomly generated non-rhabdomyolysis datasets) [2]: 21 | PChebyshev (probability derived from the Chebyshev inequality) [2]: 5.36 × 10^−4 | association with rhabdomyolysis (in words) [2]: only weak evidence | Z (z-score, rhabdomyolysis vs non-rhabdomyolysis randomized datasets) ([2]; listed as L BP): 43* | Z (z-score, rhabdomyolysis vs non-rhabdomyolysis randomized datasets) ([2]; listed as Lopid): 43 | Nrhabdo (subset size based on the rhabdomyolysis dataset) [2]: 306
